We go through one variant from IntAct's records for PubMed 26840340.

To fix the notation:
B1: Islet amyloid polypeptide (Homo sapiens), P10997 (parent)
chain: MGILKLQVFLIVLSVALNHLKATPIESHQVEKRKCNTATCATQRLANFLVHSSNNFGAILSSTNVGSNTYGKRNAVEVLKREPLNYLPL

In the assay the parent is B1. The conditions noted are these: with bace1_human BACE1, P56817.
Sequence of bace1_human BACE1, P56817 (P56817 whole entry): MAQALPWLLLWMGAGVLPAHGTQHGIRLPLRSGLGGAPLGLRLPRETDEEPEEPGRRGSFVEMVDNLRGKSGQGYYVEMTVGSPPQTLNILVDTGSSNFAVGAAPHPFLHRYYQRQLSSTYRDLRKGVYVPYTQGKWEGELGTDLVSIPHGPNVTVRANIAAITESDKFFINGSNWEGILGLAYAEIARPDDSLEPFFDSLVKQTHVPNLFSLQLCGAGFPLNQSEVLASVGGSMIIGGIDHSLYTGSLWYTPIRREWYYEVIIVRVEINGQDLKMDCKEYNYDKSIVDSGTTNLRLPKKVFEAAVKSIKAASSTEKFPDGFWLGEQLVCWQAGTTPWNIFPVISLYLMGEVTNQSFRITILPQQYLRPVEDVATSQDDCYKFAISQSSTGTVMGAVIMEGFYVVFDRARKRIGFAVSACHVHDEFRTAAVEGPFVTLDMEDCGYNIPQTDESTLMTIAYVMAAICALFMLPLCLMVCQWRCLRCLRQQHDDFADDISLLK
Take F56K: the “effect of a mutation on the interaction” value is reported as “with no effect”.
